Data from the supplement of paper PMC11316812.
± gives the standard deviation of the averaged measurements.

What was measured:
[1] = tested on: MCF7; assay: percentage of EdU-negative (G0-arrested) nuclei per well, 72 h; higher = more G0 arrest; conditions: reference: sequence is the full UniProt precursor, the tested protein was the secreted form or ectodomain
[2] = tested on: hTERT-HMEC; assay: as above; conditions: reference: sequence is the full UniProt precursor, the tested protein was the secreted form or ectodomain
[3] = protein concentration 0.03125 µM
[4] = protein concentration 0.3125 µM
[5] = protein concentration 0.0225 µM
[6] = protein concentration 0.0261 µM
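Also: secreted proteins added to cultured cells, EdU pulse at the end, nuclei found by Hoechst imaging, EdU status from nuclear versus surrounding ring intensity ratio, PBS as neutral control.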

With “MRAPGMRSRPAGPALLLLLLFLGAAESVRRAQPPRRYTPDWPSLDSRPLPAWFDEAKFGVFIHWGVFSVPAWGSEWFWWHWQGEGRPQYQRFMRDNYPPGFSYADFGPQFTARFFHPEEWADLFQAAGAKYVVLTTKHHEGFTNWPSPVSWNWNSKDVGPHRDLVGELGTALRKRNIRYGLYHSLLEWFHPLYLLDKKNGFKTQHFVSAKTMPELYDLVNSYKPDLIWSDGEWECPDTYWNSTNFLSWLYNDSPVKDEVVVNDRWGQNCSCHHGGYYNCEDKFKPQSLPDHKWEMCTSIDKFSWGYRRDMALSDVTEESEIISELVQTVSLGGNYLLNIGPTKDGLIVPIFQERLLAVGKWLSINGEAIYASKPWRVQWEKNTTSVWYTSKGSAVYAIFLHWPENGVLNLESPITTSTTKITMLGIQGDLKWSTDPDKGLFISLPQLPPSAVPAEFAWTIKLTGVK” the “percentage of EdU-negative” value [1, 3] was 23.7 ± 2%, the “percentage of EdU-negative” value [1, 4] was 27.8 ± 1.4% and the “percentage of EdU-negative” value [2, 3] was 5.35 ± 1.3%. The “percentage of EdU-negative” value [2, 4] was 6.003 ± 0.042%.

“MRAPHLHLSAASGARALAKLLPLLMAQLWAAEAALLPQNDTRLDPEAYGSPCARGSQPWQVSLFNGLSFHCAGVLVDQSWVLTAAHCGNKPLWARVGDDHLLLLQGEQLRRTTRSVVHPKYHQGSGPILPRRTDEHDLMLLKLARPVVLGPRVRALQLPYRCAQPGDQCQVAGWGTTAARRVKYNKGLTCSSITILSPKECEVFYPGVVTNNMICAGLDRGQDPCQSDSGGPLVCDETLQGILSWGVYPCGSAQHPAVYTQICKYMSWINKVIRSN” was tested, and the “percentage of EdU-negative” value [1, 5] was 26.7 ± 0.38%, the “percentage of EdU-negative” value ([1]; protein concentration 0.225 µM) was 26.9 ± 1.7% and the “percentage of EdU-negative” value [2, 5] was 3.89 ± 0.14%. For the same sequence, the “percentage of EdU-negative” value ([2]; protein concentration 0.225 µM) was 6.32 ± 0.7%.

For “MRAPLLPPAPVVLSLLILGSGHYAAGLDLNDTYSGKREPFSGDHSADGFEVTSRSEMSSGSEISPVSEMPSSSEPSSGADYDYSEEYDNEPQIPGYIVDDSVRVEQVVKPPQNKTESENTSDKPKRKKKGGKNGKNRRNRKKKNPCNAEFQNFCIHGECKYIEHLEAVTCKCQQEYFGERCGEKSMKTHSMIDSSLSKIALAAIAAFMSAVILTAVAVITVQLRRQYVRKYEGEAEERKKLRQENGNVHAIA”, the “percentage of EdU-negative” value [1, 6] was 26.1 ± 0.68%, the “percentage of EdU-negative” value ([1]; protein concentration 0.261 µM) was 25.9 ± 1.5% and the “percentage of EdU-negative” value [2, 6] was 5.2 ± 0.8%. For the same sequence, the “percentage of EdU-negative” value ([2]; protein concentration 0.261 µM) was 5.0893 ± 0.0048%.

For “MRARPRPRPLWATVLALGALAGVGVGGPNICTTRGVSSCQQCLAVSPMCAWCSDEALPLGSPRCDLKENLLKDNCAPESIEFPVSEARVLEDRPLSDKGSGDSSQVTQVSPQRIALRLRPDDSKNFSIQVRQVEDYPVDIYYLMDLSYSMKDDLWSIQNLGTKLATQMRKLTSNLRIGFGAFVDKPVSPYMYISPPEALENPCYDMKTTCLPMFGYKHVLTLTDQVTRFNEEVKKQSVSRNRDAPEGGFDAIMQATVCDEKIGWRNDASHLLVFTTDAKTHIALDGRLAGIVQPNDGQCHVGSDNHYSASTTMDYPSLGLMTEKLSQKNINLIFAVTENVVNLYQNYSELIPGTTVGVLSMDSSNVLQLIVDAYGKIRSKVELEVRDLPEELSLSFNATCLNNEVIPGLKSCMGLKIGDTVSFSIEAKVRGCPQEKEKSFTIKPVGFKDSLIVQVTFDCDCACQAQAEPNSHRCNNGNGTFECGVCRCGPGWLGSQCECSEEDYRPSQQDECSPREGQPVCSQRGECLCGQCVCHSSDFGKITGKYCECDDFSCVRYKGEMCSGHGQCSCGDCLCDSDWTGYYCNCTTRTDTCMSSNGLLCSGRGKCECGSCVCIQPGSYGDTCEKCPTCPDACTFKKECVECKKFDRGALHDENTCNRYCRDEIESVKELKDTGKDAVNCTYKNEDDCVVRFQYYEDSSGKSILYVVEEPECPKGPDILVVLLSVMGAILLIGLAALLIWKLLITIHDRKEFAKFEEERARAKWDTANNPLYKEATSTFTNITYRGT”, the “percentage of EdU-negative” value ([1]; protein concentration 0.009 µM) was 26.2 ± 0.6%, the “percentage of EdU-negative” value ([1]; protein concentration 0.09 µM) was 27.7 ± 1.2% and the “percentage of EdU-negative” value ([2]; protein concentration 0.009 µM) was 4.78 ± 0.31%. The “percentage of EdU-negative” value ([2]; protein concentration 0.09 µM) was 16.9 ± 4.2%.

For “MRARRGLLRLPRRSLLAALFFFSLSSSLLYFVYVAPGIVNTYLFMMQAQGILIRDNVRTIGAQVYEQVLRSAYAKRNSSVNDSDYPLDLNHSETFLQTTTFLPEDFTYFANHTCPERLPSMKGPIDINMSEIGMDYIHELFSKDPTIKLGGHWKPSDCMPRWKVAILIPFRNRHEHLPVLFRHLLPMLQRQRLQFAFYVVEQVGTQPFNRAMLFNVGFQEAMKDLDWDCLIFHDVDHIPESDRNYYGCGQMPRHFATKLDKYMYLLPYTEFFGGVSGLTVEQFRKINGFPNAFWGWGGEDDDLWNRVQNAGYSVSRPEGDTGKYKSIPHHHRGEVQFLGRYALLRKSKERQGLDGLNNLNYFANITYDALYKNITVNLTPELAQVNEY”, the “percentage of EdU-negative” value ([1]; protein concentration 0.016 µM) was 24.5 ± 0.93%, the “percentage of EdU-negative” value ([1]; protein concentration 0.16 µM) was 30.8 ± 1.6% and the “percentage of EdU-negative” value ([2]; protein concentration 0.016 µM) was 5.58 ± 0.37%. The “percentage of EdU-negative” value ([2]; protein concentration 0.16 µM) was 20.8 ± 1.2%.
